# Experimental data as given in patent US20260015426A1 (23ANDME, published 2026).
# Where a chain is given by its changes, count along the chain named. Names and notes keep the numbering of the source.
# T1: hu-M-IL1RAP construct, positions S21-T367 (extracellular domain of the membrane form of human IL1RAP) (human, UniProt Q9NPH3 21-367)
# T1 construct: Biotinylated when captured on the Biacore chip
# T1 sequence: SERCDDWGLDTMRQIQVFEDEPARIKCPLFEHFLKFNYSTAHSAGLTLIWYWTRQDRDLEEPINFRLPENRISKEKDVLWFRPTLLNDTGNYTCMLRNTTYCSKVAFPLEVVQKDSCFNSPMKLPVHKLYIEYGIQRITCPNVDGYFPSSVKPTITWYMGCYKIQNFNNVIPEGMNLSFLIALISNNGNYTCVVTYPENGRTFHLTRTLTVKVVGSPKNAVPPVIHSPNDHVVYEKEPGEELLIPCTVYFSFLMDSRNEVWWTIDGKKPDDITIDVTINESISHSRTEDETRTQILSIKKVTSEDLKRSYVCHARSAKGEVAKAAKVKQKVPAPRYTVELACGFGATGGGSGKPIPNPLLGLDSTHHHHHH
# T2: human IL1RAP (hu-IL1RAP) on human cells (human, UniProt Q9NPH3 21-570)
# T2 sequence: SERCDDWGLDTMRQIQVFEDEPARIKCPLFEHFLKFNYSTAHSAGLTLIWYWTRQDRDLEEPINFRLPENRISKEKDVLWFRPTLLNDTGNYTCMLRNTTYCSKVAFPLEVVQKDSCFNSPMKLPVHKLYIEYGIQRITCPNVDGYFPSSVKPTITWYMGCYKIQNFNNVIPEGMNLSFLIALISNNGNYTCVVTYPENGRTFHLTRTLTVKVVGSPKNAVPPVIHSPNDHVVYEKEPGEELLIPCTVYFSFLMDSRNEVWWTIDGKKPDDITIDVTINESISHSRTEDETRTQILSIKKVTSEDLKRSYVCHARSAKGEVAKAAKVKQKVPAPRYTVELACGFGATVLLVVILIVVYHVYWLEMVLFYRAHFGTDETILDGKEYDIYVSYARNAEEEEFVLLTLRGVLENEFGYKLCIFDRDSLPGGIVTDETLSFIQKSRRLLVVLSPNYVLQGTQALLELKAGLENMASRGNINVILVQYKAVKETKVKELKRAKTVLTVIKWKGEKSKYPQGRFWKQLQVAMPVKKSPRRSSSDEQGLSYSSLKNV
# B1: K10 Fab (VL A51Y) (Fab, V domains shown)
# VH: EVQLVESGGGLVQPGGSLRLSCAASGFTFSNYAMSWVRQAPGKGLEWVATVTEGGDYNYYLDDVKGRFTISRDNAKNSLYLQMNSLRAEDTAVYYCARDRWPYFFDYWGQGTLVTVSS
# VL: DIQMTQSPSSLSASVGDRVTITCRASENIYSNLAWYQQKPGKSPKLLVYGYKNLADGVPSRFSGSGSGTDYTLTISSLQPEDFATYYCQHFWTTPRTFGGGTKVEIK
# notes: Fab with 8xHis tag
# B2: H6 Fab (VH R96Q) (Fab, V domains shown)
# VH: B1 VH with R100Q
# VL: B1 VL with Y51A
# notes: Fab with 8xHis tag
# B3: H2 Fab (VH R96D) (Fab, V domains shown)
# VH: B1 VH with R100D
# VL: B1 VL with Y51A
# notes: Fab with 8xHis tag
# B4: H3 Fab (VH V51S) (Fab, V domains shown)
# VH: B1 VH with V51S
# VL: B1 VL with Y51A
# notes: Fab with 8xHis tag
# B5: H1 Fab (VH R96A) (Fab, V domains shown)
# VH: B1 VH with R100A
# VL: B1 VL with Y51A
# notes: Fab with 8xHis tag
# B6: K15 Fab (VL T94V) (Fab, V domains shown)
# VH: B1 VH
# VL: B1 VL with Y51A, T94V
# notes: Fab with 8xHis tag
# B7: K9 Fab (VL A51D) (Fab, V domains shown)
# VH: B1 VH
# VL: B1 VL with Y51D
# notes: Fab with 8xHis tag
# B8: K12 Fab (VL W92I) (Fab, V domains shown)
# VH: B1 VH
# VL: B1 VL with Y51A, W92I
# notes: Fab with 8xHis tag
# B9: K14 Fab (VL T94I) (Fab, V domains shown)
# VH: B1 VH
# VL: B1 VL with Y51A, T94I
# notes: Fab with 8xHis tag
# B10: H4 Fab (VH F29Q) (Fab, V domains shown)
# VH: B1 VH with F29Q
# VL: B1 VL with Y51A
# notes: Fab with 8xHis tag
# B11: K8 Fab (VL A51L) (Fab, V domains shown)
# VH: B1 VH
# VL: B1 VL with Y51L
# notes: Fab with 8xHis tag
# Biological target: T1, hu-M-IL1RAP construct, positions …
# Experiment: SPR, Fab analyte, 37 C
# Procedure: (§1) Surface plasmon resonance (SPR) analysis was used to determine binding affinity for hu-M-IL1RAP of the purified Fabs containing the selected single, double, and triple mutations in either the VL or VH regions using a BIACORE™ 8K instrument. […] For kinetics measurements, 5 nM biotinylated hu-M-IL1RAP was captured at 10 μL/min to achieve ˜50 response units in the second flow cell (FC2). FC1 was kept as a reference. […] The sensorgrams were recorded and subjected to reference and buffer subtraction before data analysis with the BIACORE® 8K Evaluation Software (version 1.1.1.7442). Association rates (kₒₙ) and dissociation rates (koff) were calculated using a simple one-to-one Langmuir binding model. The equilibrium dissociation constant (KD) was calculated as the ratio of koff/kₒₙ.
Binder,Kd,koff,kon
B1,29.8 pM,0.000153 s⁻¹,5.12e+06 M⁻¹ s⁻¹
B2,188 pM,0.000708 s⁻¹,3.76e+06 M⁻¹ s⁻¹
B3,112 pM,0.000729 s⁻¹,6.5e+06 M⁻¹ s⁻¹
B4,125 pM,0.000602 s⁻¹,4.82e+06 M⁻¹ s⁻¹

# Biological target: T1, hu-M-IL1RAP construct, positions …
# Experiment: SPR, Fab against parent Fab
Binder,Fold Improvement in KD @ 25° C.,Fold Improvement in KD @ 37° C.
B5,2.7 fold,
B6,2.81 fold,
B7,16.1 fold,
B8,8.2 fold,
B9,3.69 fold,
B1,39.4 fold,8.99 fold
B10,8 fold,
B2,7.2 fold,1.43 fold
B3,7.99 fold,2.39 fold
B4,8.51 fold,2.14 fold
B11,25.7 fold,

# Biological target: T1, hu-M-IL1RAP construct, positions …
# Experiment: phage display selection of affinity maturation libraries + NGS; enrichment of the mutation W92I (VL)
# Procedure: (§2) For the first panning round, plates and phage libraries were blocked in PBS buffer containing 0.05% TWEEN® 20 and 1% BSA for either 1 hour (plates) or 30 minutes (phage libraries). Plates were washed in Wash Buffer (PBS buffer containing 0.05% TWEEN® 20) and incubated with blocked phage libraries for 2 hours with shaking. Non-specifically bound phage was removed by washing vigorously with Wash Buffer. […] Non-specific interactions were inhibited by adding 1/10th v/v 1% BSA.
# (§3) For panning rounds three through five, phage libraries were incubated with blocking buffer (PBS buffer with 1% BSA in round 3 and SUPERBLOCK™ PBS buffer (Pierce) and 0.05% TWEEN® 20 in rounds 4 and 5) for 30 minutes and then incubated with decreasing concentrations of biotinylated hu-M-IL1RAP for 1 hour. Hu-M-IL1RAP-bound phage were captured on blocked neutravidin-coated plates, washed extensively with Wash Buffer, and eluted and neutralized in the same manner as in rounds 1 and 2. In the final selection round, 1000× non-biotinylated hu-M-IL1RAP was added as a competitor to increase the selection stringency.
# (§4) To extract sequences from affinity maturation libraries using NGS, phagemid double stranded DNA was isolated from E. coli XL-1 cells carrying phagemids from the initial phage library (unsorted libraries) and from the second and third rounds of solution selection (sorted libraries). […]
row,Binder,Enrichment ratio (at the highest selection stringency)
1,B8,3.36 ratio

# Biological target: T1, hu-M-IL1RAP construct, positions …
# Experiment: phage display selection of affinity maturation libraries + NGS; enrichment of the mutation A51Y (VL)
# Procedure: as §2, §3, §4
row,Binder,Enrichment ratio (at the highest selection stringency)
1,B1,2.95 ratio

# Biological target: T1, hu-M-IL1RAP construct, positions …
# Experiment: phage display selection of affinity maturation libraries + NGS; enrichment of the mutation F29Q (VH)
# Procedure: as §2, §3, §4
row,Binder,Enrichment ratio (at the highest selection stringency)
1,B10,3.02 ratio

# Biological target: T1, hu-M-IL1RAP construct, positions …
# Experiment: phage display selection of affinity maturation libraries + NGS; enrichment of the mutation T94V (VL)
# Procedure: as §2, §3, §4
row,Binder,Enrichment ratio (at the highest selection stringency)
1,B6,0.987 ratio

# Biological target: T1, hu-M-IL1RAP construct, positions …
# Experiment: phage display selection of affinity maturation libraries + NGS; enrichment of the mutation R96A (VH)
# Procedure: as §2, §3, §4
row,Binder,Enrichment ratio (at the highest selection stringency)
1,B5,4.55 ratio

# Biological target: T1, hu-M-IL1RAP construct, positions …
# Experiment: phage display selection of affinity maturation libraries + NGS; enrichment of the mutation A51D (VL)
row,Binder,Enrichment ratio (at the highest selection stringency)
1,B7,2.84 ratio

# Biological target: T1, hu-M-IL1RAP construct, positions …
# Experiment: phage display selection of affinity maturation libraries + NGS; enrichment of the mutation V51S (VH)
# Procedure: as §2, §3, §4
row,Binder,Enrichment ratio (at the highest selection stringency)
1,B4,3.42 ratio

# Biological target: T1, hu-M-IL1RAP construct, positions …
# Experiment: phage display selection of affinity maturation libraries + NGS; enrichment of the mutation T94I (VL)
# Procedure: as §2, §3, §4
row,Binder,Enrichment ratio (at the highest selection stringency)
1,B9,1.74 ratio

# Biological target: T1, hu-M-IL1RAP construct, positions …
# Experiment: SPR, Fab analyte, 25 C
# Procedure: as §1
Binder,Kd,koff,kon
B5,125 pM,0.000218 s⁻¹,1.75e+06 M⁻¹ s⁻¹
B6,120 pM,0.00068 s⁻¹,5.67e+06 M⁻¹ s⁻¹
B7,21 pM,0.000103 s⁻¹,4.93e+06 M⁻¹ s⁻¹
B8,41.1 pM,0.00023 s⁻¹,5.58e+06 M⁻¹ s⁻¹
B9,91.3 pM,0.000543 s⁻¹,5.95e+06 M⁻¹ s⁻¹
B1,8.55 pM,5.06e-05 s⁻¹,5.92e+06 M⁻¹ s⁻¹
B10,42.1 pM,0.000231 s⁻¹,5.49e+06 M⁻¹ s⁻¹
B2,46.8 pM,0.00025 s⁻¹,5.34e+06 M⁻¹ s⁻¹
B3,42.2 pM,0.000219 s⁻¹,5.19e+06 M⁻¹ s⁻¹
B4,39.6 pM,0.000208 s⁻¹,5.26e+06 M⁻¹ s⁻¹
B11,13.1 pM,6.76e-05 s⁻¹,5.15e+06 M⁻¹ s⁻¹

# Biological target: T1, hu-M-IL1RAP construct, positions …
# Experiment: phage display selection of affinity maturation libraries + NGS; enrichment of the mutation R96Q (VH)
# Procedure: as §2, §3, §4
row,Binder,Enrichment ratio (at the highest selection stringency)
1,B2,3.8 ratio

# Biological target: T1, hu-M-IL1RAP construct, positions …
# Experiment: phage display selection of affinity maturation libraries + NGS; enrichment of the mutation A51L (VL)
# Procedure: as §2, §3, §4
row,Binder,Enrichment ratio (at the highest selection stringency)
1,B11,2.9 ratio

# Biological target: T2, human IL1RAP (hu-IL1RAP) on human cells
# Experiment: cell-based or functional assay
Binder,"HEK-Blue, IL-1β, % inhibition at 100 nM (Fab)","HEK-Blue, IL-1β, IC50 (Fab)","HEK-Blue, IL-33, % inhibition at 100 nM (Fab)","HEK-Blue, IL-33, IC50 (Fab)","HEK-Blue, IL-36α, % inhibition at 100 nM (Fab)","HEK-Blue, IL-36α, IC50 (Fab)"
B1,100%,660 pM,98%,3260 pM,100%,706 pM

# Biological target: T1, hu-M-IL1RAP construct, positions …
# Experiment: phage display selection of affinity maturation libraries + NGS; enrichment of the mutation R96D (VH)
# Procedure: as §2, §3, §4
row,Binder,Enrichment ratio (at the highest selection stringency)
1,B3,4.06 ratio
